Data as given in patent US20090311278A1, “Novel teleost derived antimicrobial polypeptides” (THE UNIVERSITY OF GEORGIA RESEARCH FOUNDATION, published 2009).

T1: NCAMP-1 (histone H1X-like ODN binding protein), recombinant (Ictalurus punctatus)
T1 chain: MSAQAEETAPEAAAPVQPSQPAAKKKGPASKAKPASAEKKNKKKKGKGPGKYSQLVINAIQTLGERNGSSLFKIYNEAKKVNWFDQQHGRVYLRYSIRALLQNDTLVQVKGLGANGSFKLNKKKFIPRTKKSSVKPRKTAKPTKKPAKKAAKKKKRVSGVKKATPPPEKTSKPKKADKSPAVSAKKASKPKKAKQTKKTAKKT


Molecular target: T1, NCAMP-1 (histone H1X-like ODN binding …)
Experiment: Southwestern blot
Settings: tags: C-terminal 6xHis (pET-21b, E. coli); label: biotin (3')
Experimental: Biotinylated ODNs were used to identify potential. DNA binding proteins in NCC membrane lysate preparations and to evaluate the ODN binding of recombinant NCAMP-1. Membrane lysates were prepared as indicated above. Purified recombinant NCAMP-1 was mixed with SDS-PAGE sample buffer (reducing) prior to electrophoresis. […] Membranes were blocked in Superblock (Pierce, Rockford Ill.) blocking solution with 0.05% Tween-20. ODN's were diluted in Superblock and added to membranes (1 h, room temperature). Membranes were washed (3×) in TBS with 0.5% Tween-20 (TBST). Neutraviden-HRP (Pierce) diluted in Superblock (minimum dilution 1:50000) was added and incubated for 30 min at room temperature. Blots were washed (3×) in TBST and were developed with enhanced chemiluminiscence (SuperSignal® West Pico Pierce, Rockford, Ill.).

Binder	binding result
TGCTGCTTGTGCTTGTGCTT (ssDNA) [GpC ODN]	binds
TCGTCGTTGTCGTTGTCGTT (ssDNA) [CpG ODN]	binds
